B1: 75110_10K21A (antibody, V domains shown)
VH: EVQLVESGGGLVQPGGSLRLSCAASGFTFSSYWMTWVRQAPGKGLEWVANIKQDGSEKYYVDSVKGRFTISRDNAKNSLYLQMNSLRAEDTAVYYCVRDRYDALDIWGQGTMVTVSS
VL: AIQMTQSPSSLSASVGDRVTITCRASQGIRNDLNWYQQKPGKAPKLLIYAASSLQSGVPSRFSGSGSGTDFTLTISSLQAEDFATYYCLKDYNYPYTFGQGTKLEIK
notes: Tested as non-clonal hybridoma supernatant from AlivaMab Mouse Kappa mice, detected with anti-mouse Fc and anti-human Kappa
B2: 75110_14P08A (antibody, V domains shown)
VH: QVQLQESGPGLVKSSETLSLTCTDSGDSIRSYYWNWIRQPAGKGLEWIGRIYASGSTNYNPSLKSRVIMSADTSKNRFSLKLSSVTAADTAVYYCARDGGVGDSLDYWGQGTLVTVSS
VL: DIVMTQTPLSLPVTPGEPASISCRSSQSLLDSDDGNTYLDWYLQKPGQSPQLLIYTLSYRASGVPDRFSGSGSGTDFTLKISRVEAEDVGVYYCMQRIEFPFTFGPGTKVDIK
notes: Tested as AlivaMab Mouse (AMM) antibody purified from hybridoma supernatant and captured through its mouse IgG Fc; also called ADS75110 purified AMM Ab 75110_14P08A; Sib8.2
B3: 75110_01H18A (antibody, V domains shown)
VH: QVQLQQWGAGLLKPSETLSLTCAVYGGSFSGYYWSWIRQSPGKGLEWIGEINQSGSTNYNPSLKSRVTISVDTSKNQFSLKLSSVTAADTAVYYCARVINWFDSWGQGTLVTVSS
VL: DIQMTQSPSSVSASVGDRVTITCRASQGISSWLAWYQQKPGKAPKLLIYAASSFQSGVPSRFSGSGSGTDFTLTISSLQTEDFATYYCQQANSFPYTFGQGTRLEIK
notes: as for B1
B4: 75110_08H06A (antibody, V domains shown)
VH: EVQLVESGGGLVQPGGSLRLSCAASGFTFSNYDMHWVRQATGKGLEWVSTIGTAGDTYYPGSVKGRFTISRENAKNSLYLQMNSLRAGDTAVYYCARGGYDYYGMDVWGQGTTVTVSS
VL: EIVLTQSPGTLSLSPGERATLSCRASQSITSIYLAWYRQKPGQAPRLLIYGASSRATGIPDRFSGSGSGTDFTLTISRLEPEDFAVYYCQQYGSSPFTFGPGTKVDIK
notes: as for B1
B5: 75110_08H11A (antibody, V domains shown)
VH: EVQLVESGGGLVQPGGSLRLSCAASGFTFSSYDMHWVRQATGKGLEWVSTIGTAGDTYYPGSVKGRFTISRENAKNSLYLQMNSLRAGDTAVYYCARGGYSYYGMDVWGQGTTVTVSS
VL: EIVLTQSPGTLSLSPGERATLSCGASQSVSSTYLAWYQQKPGQAPRLLIYGASSRATGIPDRFSGSGSGTDFTLTISRLEPEDFAVYYCQQFGSSPFTFGPGTKVDIK
notes: Tested as antibody purified from AlivaMab Mouse hybridoma supernatant (human variable domains, kappa; mouse Fc, captured on anti-mouse IgG Fc sensors); also called ADS75110 purified AMM Ab
B6: 75110_14P05A (antibody, V domains shown)
VH: EVQLVESGGGLVQPGGSLRLSCAASGFTFSSYDVHWVRQATGKGLEWVSTIGTAGDTYYPGSVKGRFTISRENAKNSLYLQMNSLRAGDTAVYYCARGGFYYYGMDVWGQGTTVTVSS
VL: EIVLTQSPGTLSLSPGERATLSCRASQSVSSSYLAWYQQKPGQTPRLLIYGASSRATGIPDRFSGSGSGTDFTLTISRLEPEDFAVFYCQQSGSSPFTFGPGTKVDVK
notes: Tested as AlivaMab Mouse (AMM) antibody purified from hybridoma supernatant and captured through its mouse IgG Fc; also called ADS75110 purified AMM Ab 75110_14P05A; Sib1.10
B7: 75110_14H13A (antibody, V domains shown)
VH: EVQLVESGGGLVQPGGSLRLSCAASGFTFSNYDMHWVRQATGKGLEWVSTIGTAGDTYYPGSVKGRFTISRKNAKNSLYLQMISLRAGDTAVYYCARGGDYYYGMDVWGQGTTVTVSS
VL: not shown
notes: as for B5
B8: 75110_08H06A (antibody, V domains shown)
VH: EVQLVESGGGLVQPGGSLRLSCAASGFTFSNYDMHWVRQATGKGLEWVSTIGTAGDTYYPGSVKGRFTISRENAKNSLYLQMNSLRAGDTAVYYCARGGYDYYGMDVWGQGTTVTVSS
VL: EIVLTQSPGTLSLSPGERATLSCRASQSITSIYLAWYRQKPGQAPRLLIYGASSRATGIPDRFSGSGSGTDFTLTISRLEPEDFAVYYCQQYGSSPFTFGPGTKVDIK
notes: as for B5
B9: 75110_10N21A (antibody, V domains shown)
VH: EVQLVESGGGLVQPGGSLRLSCAASGFTFSSYDMHWVRQVTGKGLEWVSTIGTAGDTYYPGSVKGRFTISRENAKNSLYLQMNSLRAGDTAVYYCARGGYYYYGMDVWGQGTTVTVSS
VL: EIVLTQSPGTLSLSPGERATLSCRASQSFISSYLAWYQQKPGQAPRLLIYGASSRATGIPDRFSGSGSGTDFTLTISRLDPEDFAVYYCQQSGNSPFTFGPGTKVDVK
notes: as for B1
B10: 75110_13C07A (antibody, V domains shown)
VH: EVQLVESGGVLVQPGGSLRLSCAASGFTFSNYDMHWVRQATGKGLEWVSTIGTAGDTYYPGSVKGRFTLSRENAKNSLYLQMHSLRAGDTAVYYCARGAYGYYGMDVWGQGTTVTVSS
VL: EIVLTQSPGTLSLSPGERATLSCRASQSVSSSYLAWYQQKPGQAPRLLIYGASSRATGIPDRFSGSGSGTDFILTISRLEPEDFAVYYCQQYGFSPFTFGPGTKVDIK
notes: as for B1
B11: 75110_14H13A (antibody, V domains shown)
VH: EVQLVESGGGLVQPGGSLRLSCAASGFTFSNYDMHWVRQATGKGLEWVSTIGTAGDTYYPGSVKGRFTISRKNAKNSLYLQMISLRAGDTAVYYCARGGDYYYGMDVWGQGTTVTVSS
VL: not shown
notes: as for B1

Key:
[1] = target: T1, human CD4 on cells (SKW3 cells; human PBMCs) (human, UniProt P01730 26-458); test: FACS confirmation, supernatant on human PBMCs, anti-mFc 647
T1 construct: whole, on cells; The SKW3 CD4 knockout cells served as the negative cell line; also called hCD4

[2] = target: T1, human CD4 on cells (SKW3 cells; human …); test: FACS confirmation, supernatant on human PBMCs, anti-mFc 647, CD4+ gate
[3] = target: T1, human CD4 on cells (SKW3 cells; human …); test: FACS confirmation, supernatant on SKW3 WT cells, anti-mFc 647; background gMFI 3300
[4] = target: T1, human CD4 on cells (SKW3 cells; human …); test: FACS confirmation, supernatant on SKW3 WT cells, anti-hu Kappa FITC; background gMFI 2500
[5] = target: T1, human CD4 on cells (SKW3 cells; human …); test: FACS primary screen, non-clonal supernatant; SKW3 vs SKW3 CD4 KO cells, anti-mouse Fc 647 detection
[6] = target: T1, human CD4 on cells (SKW3 cells; human …); test: FACS binning on SKW3 cells after supernatant; competitor OKT4-A488; background 2163, max binding 8200
[7] = target: T1, human CD4 on cells (SKW3 cells; human …); test: FACS primary screen, non-clonal supernatant; SKW3 vs SKW3 CD4 KO cells, anti-human Kappa FITC detection
[8] = target: T1, human CD4 on cells (SKW3 cells; human …); test: FACS binning on SKW3 cells after supernatant; competitor RPA-T4-PE-Dazzle 594; background 783, max binding 15000
huCD4-HIS = target: T2, huCD4-HIS (human, UniProt P01730 26-390, limits assumed); test: ELISA binning, competitor Ibalizumab; 100 ng/mL huCD4-HIS, anti-HIS HRP detection; background 45, max binding 3000000
T2 construct: Named only in the head of the Ibalizumab ELISA binning column; Neither the source nor the construct limits are told in this stretch; not shown: HIS tag

[9] = target: T1, human CD4 on cells (SKW3 cells; human …); test: FACS binning on SKW3 cells after supernatant; competitor OKT4a, anti-hu A647 secondary; background 5000, max binding 35000
[10] = target: T3, Recombinant human CD4 (R&D Systems, Cat. 10327-CD) (human, UniProt P01730 26-390, limits assumed); test: BLI (Octet Red384); purified antibody captured on anti-mouse IgG Fc (AMC) sensors; human CD4 as analyte at 100, 50 and 25 nM; 1:1 global fit
T3 construct: Bought recombinant protein; also called huCD4

[11] = target: T4, Rhesus macaque CD4-HIS (Acro Biosystems, Cat. CD4-C52H7) (rhesus macaque, UniProt P16003 26-390); test: BLI (Octet Red384); Ab on anti-mouse Fc (AMC) sensor; rhesus CD4-HIS as analyte
T4 construct: Bought reagent; also called Rhesus CD4; rhesus CD4-HIS; not shown: His tag
T4 sequence (P16003 26-390 limits assumed): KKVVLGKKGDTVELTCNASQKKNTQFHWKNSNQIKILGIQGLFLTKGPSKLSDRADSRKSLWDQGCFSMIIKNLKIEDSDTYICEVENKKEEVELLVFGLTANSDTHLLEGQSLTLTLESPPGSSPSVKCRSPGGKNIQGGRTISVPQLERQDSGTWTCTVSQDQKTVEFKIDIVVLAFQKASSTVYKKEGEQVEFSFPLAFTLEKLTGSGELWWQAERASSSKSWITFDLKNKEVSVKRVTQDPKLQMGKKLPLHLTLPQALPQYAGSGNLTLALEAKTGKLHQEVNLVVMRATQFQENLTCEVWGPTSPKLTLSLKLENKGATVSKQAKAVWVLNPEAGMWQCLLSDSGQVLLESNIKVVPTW

Binder | PBMCs CD4+ percent bound of viable [1] | PBMCs CD4+ gate RL1 Binding [2] | gMFI, SKW3 WT anti-mFc 647 [3] | gMFI, SKW3 WT anti-hu Kappa FITC [4] | SKW3 WT vs KO, anti-mFc-647 (ratio) [5] | OKT4 A488 signal (FACS binning) [6] | SKW3 WT vs KO, anti-hKappa-FITC (ratio) [7] | RPA-T4-PE-Dazzle 594 signal (FACS binning) [8] | Ibalizumab ELISA binning signal (huCD4-HIS) | OKT4a anti-hu A647 signal (FACS binning) [9] | Kd [10] | koff [10] | kon [10] | binding result [11]
B1 | 32% | 224000 | 19200 gMFI | 5850 gMFI | 2.6 ratio | 9980 | 1.7 ratio | 2590 | 293000 | 34100 |  |  |  | 
B2 |  |  |  |  |  |  |  |  |  |  | 0.33 nM | 3.2e-05 s⁻¹ | 96000 M⁻¹ s⁻¹ | 
B3 | 32% | 263000 | 19000 gMFI | 4930 gMFI | 3.6 ratio | 9840 | 1.6 ratio | 2830 | 385000 | 37200 |  |  |  | 
B4 | 30% | 225000 | 23000 gMFI | 6270 gMFI | 3 ratio | 10400 | 1.6 ratio | 2480 | 1.42e+06 | 29900 |  |  |  | 
B5 |  |  |  |  |  |  |  |  |  |  |  |  |  | no binding (tested: 100 nM (highest of 100, 50, 25 nM))
B6 |  |  |  |  |  |  |  |  |  |  | < 0.001 nM | < 1e-07 s⁻¹ | 95000 M⁻¹ s⁻¹ | 
B7 |  |  |  |  |  |  |  |  |  |  |  |  |  | no binding (tested: 100 nM (highest of 100, 50, 25 nM))
B8 |  |  |  |  |  |  |  |  |  |  |  |  |  | no binding (tested: 100 nM (highest of 100, 50, 25 nM))
B9 | 33% | 179000 | 13000 gMFI | 4060 gMFI | 3.1 ratio | 9090 | 1.4 ratio | 6880 | 1.58e+06 | 40100 |  |  |  | 
B10 | 35% | 303000 | 23100 gMFI | 5720 gMFI | 3.1 ratio | 9590 | 1.6 ratio | 2510 | 1.7e+06 | 38900 |  |  |  | 
B11 | 29% | 292000 | 22000 gMFI | 6010 gMFI | 4.8 ratio | 12700 | 1.9 ratio | 1660 | 2260 | 14300 |  |  |  | 
